Data: patent US20080311130A1 (IMMUNE DISEASE INSTITUTE, published 2008)

Columns and labels:
[1] = target: ICAM-1-Fcγ (ICAM-1 residues of 1-480 fused to the Fc of human IgG, R&D Systems) (human) (UniProt P05362); experiment: flow cytometry on yeast-displayed I domain, ICAM-1-Fcγ 10 µg/ml
[2] = target: T1, ICAM-1-Fcγ (ICAM-1 residues of 1-480 fused to the Fc of human IgG, R&D Systems) (human, UniProt P05362 28-480); experiment: as above
T1 construct: range 1-480; Bought (R&D Systems); also called ICAM-1-Fcγ chimera; not shown: Fc of human IgG
Experimental: Cells that were cultured only in SD-CAA or further induced in SG-CAA were harvested, washed with 100 μl of labeling buffer (PBS, 0.5% BSA, 10 mM MgCl₂), and then incubated with ligands at 10 μg/ml in 50 μl of the labeling buffer for 20 min with shaking at 30° C. in a 96-well V-bottom plate. Ligands used in this study were anti-c-myc antibody 9E10 (Santa Cruz Biotechnology, CA) and anti-hemagglutinin antibody 12CA5 (Roche Applied Science), αL I domain-specific antibodies TS1/22 and MEM83³², and ICAM-1-Fcγ (ICAM-1 residues of 1-480 fused to the Fc of human IgG, R&D Systems). After incubation with the primary ligands, cells were washed once in 100 μl of the labeling buffer and incubated with the fluorescence-conjugated secondary antibodies at 5 μg/ml in 50 μl of the labeling buffer for 20 min at 4° C. Finally, cells were washed once in 100 μl and suspended in 100 μl of the labeling buffer for flow cytometry (FACScan, BD Biosciences).
A total of twenty-five yeast colonies were picked from SD-CAA plates from the libraries selected with ICAM-1-Fcγ. These clones were tested for binding of ICAM-1-Fcγ, and sequenced (Table 1). Of these, 15 had unique sequences and were designated as m1 to m15, and all bound ICAM-1 better than wild-type (Table 1). Five clones contained single mutations, and the remainder contained 2-5 mutations each (Table 1). From the clones containing multiple mutations, one to three residues were selected and independently tested as a single substitution (designated with a, b, or c suffix) or independently isolated from the ratchet residue library (see below).

[3] = target: T1, ICAM-1-Fcγ (ICAM-1 residues of 1-480 …); experiment: SPR (Biacore); wild-type value from a previous study
[4] = target: T1, ICAM-1-Fcγ (ICAM-1 residues of 1-480 …); experiment: SPR (Biacore 3000), I domain injected over ICAM-1-Fcγ-coupled CM5 chip, 10 mM MgCl2
Experimental: (§1) Mutant I domains (F265S, F292A, F292G, F265S/F292G, and HA) with residues of Asn-129 to Tyr-307 were expressed in Escherichia coli BL21 (DE3) (Novagen), refolded, and purified as described previously⁶. ICAM-1-Fcγ-coupled or mock-coupled CM5 sensor chip as control was prepared using the amine coupling kit (BIAcore, Piscataway, N.J.), as described previously³³. Surface plasmon resonance was measured using Biacore 3000. I domains were injected over the chip in 20 mM Tris HCl, pH 8.0, 150 mM NaCl, 10 mM MgCl₂, at a flow rate of 10 μl/min at room temperature.
Several of the most activating mutants were expressed in Escherichia coli and refolded in order to measure the kinetics of binding to ICAM-1 by surface plasmon resonance (FIG. 2). Data are shown in Table 2, and for comparison are shown kinetics measured for the wild-type and disulfide-bonded IA and HA mutants in a previous study⁶, and for the same disulfide-bonded HA mutant in the current study.
(§2) The values shown in the table are mean ± SD from three independent measurements. The parameters of kₒₙ, koff, and Kd were calculated by fitting the 1:1 Langmuir binding model to the Biacore sensogram. The values were from the previous studies ⁶.

[5] = target: T1, ICAM-1-Fcγ (ICAM-1 residues of 1-480 …); experiment: SPR (Biacore)
Experimental: Sensograms show the binding of the I domain mutants (F292A, F265S, F292G, and F265S/F292G) to ICAM-1-Fcγ-coated sensor chip. In all sensograms, the signals from the control surface, as described in Materials and Methods, were subtracted. I domain mutants were injected in a series of concentrations starting from 100 μM for F292A and 1 μM for F292G, F265S, and F265S/F292G, and the subsequent concentrations were by two-fold serial dilutions.
as §1, §2

[6] = target: T1, ICAM-1-Fcγ (ICAM-1 residues of 1-480 …); experiment: cell-based or functional assay

T1 sequence (P05362 28-480 limits assumed, form in doubt): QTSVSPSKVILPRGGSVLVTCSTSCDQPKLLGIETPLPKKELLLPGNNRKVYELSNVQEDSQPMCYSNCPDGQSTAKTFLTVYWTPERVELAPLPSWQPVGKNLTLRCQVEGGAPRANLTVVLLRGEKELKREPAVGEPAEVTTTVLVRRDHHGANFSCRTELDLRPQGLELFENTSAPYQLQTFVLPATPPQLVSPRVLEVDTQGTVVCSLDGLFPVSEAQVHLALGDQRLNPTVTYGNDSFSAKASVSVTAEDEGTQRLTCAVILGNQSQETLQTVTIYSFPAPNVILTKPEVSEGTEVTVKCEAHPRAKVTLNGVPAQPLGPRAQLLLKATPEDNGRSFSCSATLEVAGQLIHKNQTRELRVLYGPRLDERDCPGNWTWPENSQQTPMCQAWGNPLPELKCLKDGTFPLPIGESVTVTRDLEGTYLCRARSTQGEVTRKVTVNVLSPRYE
Chain of ICAM-1-Fcγ (ICAM-1 residues of 1-480 fused to the Fc of human IgG, R&D Systems) (human) (P05362 28-480 limits assumed): as the sequence (P05362 28-480 limits assumed, form in doubt) above

ICAM-1 (% ASFI of HA) [2] | Kd [4] [nM] | koff [4] [s⁻¹] | kon [4] [M⁻¹ s⁻¹] | Binder | other results
110 % ASFI of HA | – | – | – | αL I domain clone m15a (F277L), yeast-displayed (receptor, yeast surface display; not shown: Aga2, linker and hemagglutinin tag of pCTCON; c-myc tag) NVDLVFLFDGSMSLQPDEFQKILDFMKDVMKKLSNTSYQFAAVQFSTSYKTEFDFSDYVKWKDPDALLKHVKHMLLLTNTFGAINYVATEVFREELGARPDATKVLIIITDGEATDSGNIDAAKDIIRYIIGIGKHFQTKESQETLHKLASKPASEFVKILDTFEKLKDLFTELQKKIYVIEGTSKQDLT | –
123 % ASFI of HA | – | – | – | αL I domain clone m13 (F265S), yeast-displayed (receptor, yeast surface display; not shown: Aga2, linker and hemagglutinin tag of pCTCON; c-myc tag) NVDLVFLFDGSMSLQPDEFQKILDFMKDVMKKLSNTSYQFAAVQFSTSYKTEFDFSDYVKWKDPDALLKHVKHMLLLTNTFGAINYVATEVFREELGARPDATKVLIIITDGEATDSGNIDAAKDIIRYIIGIGKHSQTKESQETLHKFASKPASEFVKILDTFEKLKDLFTELQKKIYVIEGTSKQDLT | –
17 % ASFI of HA | – | – | – | αL I domain clone m12c (I309T), yeast-displayed (receptor, yeast surface display; not shown: Aga2, linker and hemagglutinin tag of pCTCON; c-myc tag) NVDLVFLFDGSMSLQPDEFQKILDFMKDVMKKLSNTSYQFAAVQFSTSYKTEFDFSDYVKWKDPDALLKHVKHMLLLTNTFGAINYVATEVFREELGARPDATKVLIIITDGEATDSGNIDAAKDIIRYIIGIGKHFQTKESQETLHKFASKPASEFVKILDTFEKLKDLFTELQKKIYVTEGTSKQDLT | –
30 % ASFI of HA | – | – | – | αL I domain clone m15 (F277L, I288T), yeast-displayed (receptor, yeast surface display; not shown: Aga2, linker and hemagglutinin tag of pCTCON; c-myc tag) NVDLVFLFDGSMSLQPDEFQKILDFMKDVMKKLSNTSYQFAAVQFSTSYKTEFDFSDYVKWKDPDALLKHVKHMLLLTNTFGAINYVATEVFREELGARPDATKVLIIITDGEATDSGNIDAAKDIIRYIIGIGKHFQTKESQETLHKLASKPASEFVKTLDTFEKLKDLFTELQKKIYVIEGTSKQDLT | –
14 % ASFI of HA | – | – | – | αL I domain clone m14 (I288N), yeast-displayed (receptor, yeast surface display; not shown: Aga2, linker and hemagglutinin tag of pCTCON; c-myc tag) NVDLVFLFDGSMSLQPDEFQKILDFMKDVMKKLSNTSYQFAAVQFSTSYKTEFDFSDYVKWKDPDALLKHVKHMLLLTNTFGAINYVATEVFREELGARPDATKVLIIITDGEATDSGNIDAAKDIIRYIIGIGKHFQTKESQETLHKFASKPASEFVKNLDTFEKLKDLFTELQKKIYVIEGTSKQDLT | –

Second part, the binder before the results:

Binder | ICAM-1 (% ASFI of HA) [2] | Kd [4] [nM] | koff [4] [s⁻¹] | kon [4] [M⁻¹ s⁻¹] | other results
αL I domain clone m10b (E293G), yeast-displayed (receptor, not shown: large carriers; small tags and cut ends) NVDLVFLFDGSMSLQPDEFQKILDFMKDVMKKLSNTSYQFAAVQFSTSYKTEFDFSDYVKWKDPDALLKHVKHMLLLTNTFGAINYVATEVFREELGARPDATKVLIIITDGEATDSGNIDAAKDIIRYIIGIGKHFQTKESQETLHKFASKPASEFVKILDTFGKLKDLFTELQKKIYVIEGTSKQDLT | – | – | – | – | ICAM-1 (% ASFI of HA) [1]: 4 % ASFI of HA
αL I domain clone f1 (L289A), yeast-displayed (receptor, not shown: large carriers; small tags and cut ends) NVDLVFLFDGSMSLQPDEFQKILDFMKDVMKKLSNTSYQFAAVQFSTSYKTEFDFSDYVKWKDPDALLKHVKHMLLLTNTFGAINYVATEVFREELGARPDATKVLIIITDGEATDSGNIDAAKDIIRYIIGIGKHFQTKESQETLHKFASKPASEFVKIADTFEKLKDLFTELQKKIYVIEGTSKQDLT | – | – | – | – | ICAM-1 (% ASFI of HA) [1]: 1 % ASFI of HA
αL I domain clone m12 (I150T, G246V, F299L, I309T), yeast-displayed (receptor, yeast surface display; not shown: Aga2, linker and hemagglutinin tag of pCTCON; c-myc tag) NVDLVFLFDGSMSLQPDEFQKTLDFMKDVMKKLSNTSYQFAAVQFSTSYKTEFDFSDYVKWKDPDALLKHVKHMLLLTNTFGAINYVATEVFREELGARPDATKVLIIITDGEATDSVNIDAAKDIIRYIIGIGKHFQTKESQETLHKFASKPASEFVKILDTFEKLKDLLTELQKKIYVTEGTSKQDLT | 27 % ASFI of HA | – | – | – | –
soluble αL I domain mutant F292G, Asn-129 to Tyr-307 (receptor) NVDLVFLFDGSMSLQPDEFQKILDFMKDVMKKLSNTSYQFAAVQFSTSYKTEFDFSDYVKWKDPDALLKHVKHMLLLTNTFGAINYVATEVFREELGARPDATKVLIIITDGEATDSGNIDAAKDIIRYIIGIGKHFQTKESQETLHKFASKPASEFVKILDTGEKLKDLFTELQKKIY | – | 119 | 0.0019 | 16000 | fold decrease in dissociation-rate (against wild type) [3]: 1000 fold; fold increase in affinity (against wild type) [3]: 10000 fold; fold higher affinity compared to the F292A mutant [5]: 170 fold; fold slower dissociation rate than the F292A mutant [5]: 100 fold
soluble αL I domain mutant F265S, Asn-129 to Tyr-307 (receptor) NVDLVFLFDGSMSLQPDEFQKILDFMKDVMKKLSNTSYQFAAVQFSTSYKTEFDFSDYVKWKDPDALLKHVKHMLLLTNTFGAINYVATEVFREELGARPDATKVLIIITDGEATDSGNIDAAKDIIRYIIGIGKHSQTKESQETLHKFASKPASEFVKILDTFEKLKDLFTELQKKIY | – | 145 | 0.0017 | 11800 | fold decrease in dissociation-rate (against wild type) [3]: 1000 fold; fold increase in affinity (against wild type) [3]: 10000 fold; fold slower dissociation rate than the F292A mutant [5]: 100 fold
soluble αL I domain double mutant F265S/F292G, Asn-129 to Tyr-307 (receptor) NVDLVFLFDGSMSLQPDEFQKILDFMKDVMKKLSNTSYQFAAVQFSTSYKTEFDFSDYVKWKDPDALLKHVKHMLLLTNTFGAINYVATEVFREELGARPDATKVLIIITDGEATDSGNIDAAKDIIRYIIGIGKHSQTKESQETLHKFASKPASEFVKILDTGEKLKDLFTELQKKIY | – | 6 | 0.00015 | 25000 | fold increase in affinity compared to the wild-type I domain [3]: 200000 fold; IC50 in blocking the adhesion of PMA activated lymphocytes to ICAM-1 coated surfaces [6]: 350 nM; potency relative to the HA I domain in lymphocyte adhesion to ICAM-1, transmigration and homotypic aggregation [6]: 10 fold; fold decrease in dissociation rate compared to the F265S and F292G single mutants [5]: 10 fold; fold higher binding affinity than the HA mutant [5]: 20 fold; fold higher kon than the single mutants [5]: 2 fold; fold slower dissociation rate than the HA I domain [5]: ~100 fold
soluble αL I domain mutant F292A, Asn-129 to Tyr-307 (receptor) NVDLVFLFDGSMSLQPDEFQKILDFMKDVMKKLSNTSYQFAAVQFSTSYKTEFDFSDYVKWKDPDALLKHVKHMLLLTNTFGAINYVATEVFREELGARPDATKVLIIITDGEATDSGNIDAAKDIIRYIIGIGKHFQTKESQETLHKFASKPASEFVKILDTAEKLKDLFTELQKKIY | – | 20000 | 0.19 | 9500 | fold increase in affinity (against wild type) [3]: 75 fold
